Reference: patent publication US20140356358A1 (Amgen, published 2014)
Numbering of substitutions follows the chain as printed. Numbers in names are those of the source.

B1: L6A isolate with insertion SEQ ID NO: 400 (other)
chain: EPKSCDKTHTCPPCPAPELLGGPSVFLFPPKPKDTLMISRTPEVTCVVVDVSHEDPEVKFNWYVDGVEVHNAKTKPREEQYNSTYRVVSVLTVLHQDWLNGKEYKCKVSNKALPAPIEKTISKAKGQPREPQVYTLPPSRDELGGCRAGYGDASCGGTKNQVSLTCLVKGFYPSDIAVEWESNGQPENNYKTTPPVLDSDGSFFLYSKLTVDKSRWQQGNVFSCSVMHEALHNHYTQKSLSLSPGK
B2: L6B isolate with insertion SEQ ID NO: 471 (other)
chain: B1 chain with R147L, A148R, G149N, Y150F, G151M, D152K, A153Q
B3: L6A isolate with insertion SEQ ID NO: 474 (other)
chain: B1 chain with R147A, A148K, G149D, Y150Q, G151H, D152T, A153G
B4: L6B isolate with insertion SEQ ID NO: 410 (other)
chain: B1 chain with R147L, A148K, Y150M, G151H, D152G, A153S, S154A
B5: L6A isolate with insertion SEQ ID NO: 465 (other)
chain: B1 chain with R147F, A148T, G149N, G151A, D152S, A153E, S154K
B6: L6B isolate with insertion SEQ ID NO: 440 (other)
chain: B1 chain with R147N, G149T, Y150L, G151S, D152G, A153Y, S154L
B7: L6B isolate with insertion SEQ ID NO: 457 (other)
chain: B1 chain with R147N, A148Q, G149S, Y150S, G151S, D152R, A153E, S154A
B8: L6B isolate with insertion SEQ ID NO: 460 (other)
chain: B1 chain with R147G, A148E, G149Y, Y150N, G151Y, D152V, A153G, S154G
B9: L6B isolate with insertion SEQ ID NO: 454 (other)
chain: B1 chain with R147Y, A148G, G149K, Y150A, D152M, A153R, S154D
B10: L6B isolate with insertion SEQ ID NO: 472 (other)
chain: B1 chain with R147P, A148N, G149D, Y150T, G151V, D152R, A153D, S154A
B11: L6A isolate with insertion SEQ ID NO: 458 (other)
chain: B1 chain with R147N, A148P, G149V, Y150S, G151T, D152G, S154Y
B12: L6A isolate with insertion SEQ ID NO: 466 (other)
chain: B1 chain with R147D, A148R, G149F, Y150Q, G151N, D152V, A153N, S154V
B13: L6B isolate with insertion SEQ ID NO: 468 (other)
chain: B1 chain with R147T, A148L, Y150S, G151A, D152P, A153T, S154L
B14: L6B isolate with insertion SEQ ID NO: 427 (other)
chain: B1 chain with R147V, A148Q, G149H, Y150K, G151M, D152G, A153V, S154V
B15: L6A isolate with insertion SEQ ID NO: 467 (other)
chain: B1 chain with R147E, A148R, G149H, Y150F, G151P, D152A, A153L, S154F
B16: L6B isolate with insertion SEQ ID NO: 473 (other)
chain: B1 chain with R147S, A148F, G149S, Y150R, G151H, D152M, A153G, S154A
B17: L6B isolate with insertion SEQ ID NO: 469 (other)
chain: B1 chain with R147E, A148M, G149M, Y150K, G151N, D152K, A153S, S154G
B18: L5 isolate with insertion SEQ ID NO: 470 (other)
chain: EPKSCDKTHTCPPCPAPELLGGPSVFLFPPKPKDTLMISRTPEVTCVVVDVSHEDPEVKFNWYVDGVEVHNAKTKPREEQYNSTYRVVSVLTVLHQDWLNGKEYKCKVSNKALPAPIEKTISKAKGQPREPQVYTLPPSRDELTKNQVSLTCLVKGFYPSDIAVEWESNGGCEASGQICGGGQPENNYKTTPPVLDSDGSFFLYSKLTVDKSRWQQGNVFSCSVMHEALHNHYTQKSLSLSPGK
B19: variant Fc-fragment Fc-5-66 (other)
chain: B18 chain with A174R, S175F, G176H, Q177H, I178A
notes: soluble elsewhere
B20: L5 isolate with insertion SEQ ID NO: 492 (other)
chain: B18 chain with E173M, A174M, S175R, G176E, I178G
B21: L5 isolate with insertion SEQ ID NO: 496 (other)
chain: B18 chain with E173G, A174G, S175P, G176Y, Q177V, I178F
B22: L5 isolate with insertion SEQ ID NO: 494 (other)
chain: B18 chain with E173C, A174P, S175V, G176Y, I178H
B23: L5 isolate with insertion SEQ ID NO: 493 (other)
chain: B18 chain with E173L, A174L, S175P, G176N, Q177M, I178F
B24: L5 isolate with insertion SEQ ID NO: 489 (other)
chain: B18 chain with E173Q, A174P, S175Q, G176A, Q177S, I178W
B25: L5 isolate with insertion SEQ ID NO: 488 (other)
chain: B18 chain with E173G, A174P, S175Y, G176K, Q177T, I178E
B26: L5 isolate with insertion SEQ ID NO: 487 (other)
chain: B18 chain with E173G, A174I, S175F, G176E, Q177S, I178W
B27: L5 isolate with insertion SEQ ID NO: 482 (other)
chain: B18 chain with E173M, A174G, S175W, G176W, Q177H, I178L
B28: L5 isolate with insertion SEQ ID NO: 477 (other)
chain: B18 chain with E173Q, A174Q, S175I, G176K, Q177E, I178W
B29: L5 isolate with insertion SEQ ID NO: 480 (other)
chain: B18 chain with E173A, A174G, S175P, G176Y, Q177W, I178A
B30: L5 isolate with insertion SEQ ID NO: 484 (other)
chain: B18 chain with E173Y, G176P, Q177H, I178E
B31: L5 isolate with insertion SEQ ID NO: 478 (other)
chain: B18 chain with E173D, A174L, S175P, G176N, Q177E, I178M
B32: L5 isolate with insertion SEQ ID NO: 491 (other)
chain: B18 chain with C172S, E173Q, A174R, S175A, G176P, Q177A, I178S
B33: L5 isolate with insertion SEQ ID NO: 475 (other)
chain: B18 chain with E173L, A174G, S175L, G176R, I178E
B34: L5 isolate with insertion SEQ ID NO: 486 (other)
chain: B18 chain with E173D, A174T, S175I, Q177W, I178F
B35: L5 isolate with insertion SEQ ID NO: 495 (other)
chain: B18 chain with E173L, A174M, G176Q, Q177D, I178L
B36: L5 isolate with insertion SEQ ID NO: 483 (other)
chain: B18 chain with E173P, A174Q, S175H, Q177E, I178M
B37: L5 isolate with insertion SEQ ID NO: 479 (other)
chain: B18 chain with E173M, A174F, G176H, Q177P, I178H
B38: L5 isolate with insertion SEQ ID NO: 485 (other)
chain: B18 chain with E173M, A174P, S175P, G176Q, Q177W, I178M
B39: L5 isolate with insertion SEQ ID NO: 481 (other)
chain: B18 chain with A174Q, S175Q, G176F, Q177V, I178T
B40: L5 isolate with insertion SEQ ID NO: 490 (other)
chain: EPKSCDKTHTCPPCPAPELLGGPSVFLFPPKPKDTLMISRTPEVTCVVVDVSHEDPEVKFNWYVDGVEVHNAKTKPREEQYNSTYRVVSVLTVLHQDWLNGKEYKCKVSNKALPAPIEKTISKAKGQPREPQVYTLPPSRDELTKNQVSLTCLVKGFYPSDIAVEWESNGGCDRQVTGFCGGGQPENNYKTTPPVLDSDGSFFLYSKLTVDKSRWQQGNVFSCSVMHEALHNHYTQKSLSLSPGK

What follows are binders tested against T1, human neonatal Fc receptor (hFcRn) (human, UniProt P55899 24-290; P61769 21-119) (assay: phage ELISA pH 6).
T1 construct: Biotinylated in the ELISA, Octet and yeast assays; also called human FcRn; huFcRn
Protocol: (§1) Approximately 100 μL of biotinylated human FcRn at 2 μg/mL was added to the wells of MAXISORP™ plates coated with 10 μg/mL streptavidin. After washing with PBS plus 0.05% Tween 20 (PBST) five times, phage from the overnight cultures in MES buffer at pH 6.0 or pH 7.4 were added to the plates and incubated at room temperature for 1 hr. A horseradish peroxidase (HRP)-conjugated anti-M13 antibody was used to detect the binding phage, and the plates were scored by a microtiter plate reader using a wavelength in the visible range.
(§2) Binding was assessed by a quantitative enzyme-linked immunoadsorbent assay (ELISA). The ELISA scores reflect binding affinity, with higher scores meaning higher affinity. Typically, scores higher than about 3˜5 indicate binding above background. For library L5, the insertions are between the N169 and G170 according to the numbering in FIG. 2. For libraries 6A and 6B, the insertions are between L143 and T144 according to the numbering in FIG. 2.
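Note: higher score means stronger binding and above about 3 to 5 exceeds background.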

| ELISA score | Binder |
| --- | --- |
| 79.5 | B1 |
| 42.3 | B2 |
| 41.2 | B3 |
| 68.9 | B4 |
| 45.2 | B5 |
| 54.9 | B6 |
| 49.2 | B7 |
| 47.2 | B8 |
| 50.1 | B9 |
| 42.2 | B10 |
| 48.5 | B11 |
| 44 | B12 |
| 43.6 | B13 |
| 58.9 | B14 |
| 43.8 | B15 |
| 41.8 | B16 |
| 43.2 | B17 |
| 42.4 | B18 |
| 51.2 | B19 |
| 23.9 | B20 |

| ELISA score | Binder |
| --- | --- |
| 21.3 | B21 |
| 21.7 | B22 |
| 22 | B23 |
| 25.2 | B24 |
| 26.1 | B25 |
| 26.3 | B26 |
| 29.5 | B27 |
| 38.7 | B28 |
| 33.7 | B29 |
| 27.7 | B30 |
| 36.1 | B31 |
| 24.9 | B32 |
| 41.1 | B33 |
| 26.9 | B34 |
| 21.5 | B35 |
| 28.4 | B36 |
| 35.8 | B37 |
| 27.5 | B38 |
| 31.1 | B39 |
| 25 | B40 |

Each binder was assayed against T1, human neonatal Fc receptor (hFcRn) (assay: phage ELISA pH 7.4).
Protocol: as §1, §2

| ELISA score | Binder |
| --- | --- |
| 0.7 | B1 |
| 0.2 | B2 |
| 0.2 | B3 |
| 0.8 | B4 |
| 0.3 | B5 |
| 0.6 | B6 |
| 0.4 | B7 |
| 0.4 | B8 |
| 0.4 | B9 |
| 0.4 | B10 |
| 0.2 | B11 |
| 0.2 | B12 |
| 0.2 | B13 |
| 0.8 | B14 |
| 0.6 | B15 |
| 0.3 | B16 |
| 0.3 | B17 |
| 1.6 | B18 |
| 0.5 | B19 |
| 1.5 | B20 |

| ELISA score | Binder |
| --- | --- |
| 1.4 | B21 |
| 0.3 | B22 |
| 1 | B23 |
| 0.7 | B24 |
| 0.9 | B25 |
| 0.7 | B26 |
| 1.2 | B27 |
| 1.6 | B28 |
| 0.7 | B29 |
| 1 | B30 |
| 1 | B31 |
| 1.2 | B32 |
| 1.6 | B33 |
| 1.4 | B34 |
| 1 | B35 |
| 0.5 | B36 |
| 0.7 | B37 |
| 2.1 | B38 |
| 0.8 | B39 |
| 0.4 | B40 |
